In patent US20140322161A1, “ANTI-IL-6 VACCINE COMPOSITION” (PEPTINOV SAS, priority 2011, published 2014):
Bridges are numbered along the chain shown (N, C = ends). BDB = bisdiazonium-benzidine, coupling agent to KLH; Gluta = glutaraldehyde, coupling agent to KLH

Key:
hIL-6 [1] = molecular target: T1, hIL-6 (Homo sapiens, UniProt P05231); test: Human IL-6 neutralization test on HEK293 cells (hIL-6 receptor, SEAP reporter) with purified IgGs from immunized rabbits; type: cell-based; details: purified IgGs from rabbits immunized with 100 μg of the peptide
T1 sequence (P05231 30-212): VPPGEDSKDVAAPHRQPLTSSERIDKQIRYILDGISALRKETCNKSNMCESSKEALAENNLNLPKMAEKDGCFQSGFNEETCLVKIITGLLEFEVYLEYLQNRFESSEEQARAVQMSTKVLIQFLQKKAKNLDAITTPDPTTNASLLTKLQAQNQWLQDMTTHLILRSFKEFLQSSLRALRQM
Procedure: New Zealand rabbits free from specific pathogenic organisms (n=1 per peptide) were immunized with 100 μg of peptides hP1, hP2, hP3, hP4 and hP6 derived from human IL-6 by five immunizations with CFA/IFA on D0, D14, D28, D56 and J70. The neutralizing ability of the purified IgGs, derived from the serum of each rabbit, was tested in a human IL-6 neutralization test. This test is carried out on HEK293 cells (Human Embryonic Kidney cells) transfected with the gene encoding the human IL-6 receptor and the secreted embryonic alkaline phosphatase (SEAP) reporter gene (Supplier: Invivogen). The latter is then secreted in a dose-dependent manner in response to the human IL-6.
Plating (D0): seed a flat-bottom 96-well plate, treated for cell culture with 50,000 cells per well in 100 μL of neutralization medium. (DMEM 4.5 g/L glucose, 10% v/v FCS, 2 mM L-Glutamine, 100 U/mL Penicillin/Streptomycin, 100 μg/mL of Normocin).
In parallel a so-called “pre-incubation” plate is prepared with the desired concentration of human IL-6, rabbit antibodies and commercial anti-hIL-6 antibodies used as a positive control, all in a final volume of 200 μL of neutralization medium.
The pre-incubation plate is left at 37° C. for 2 hours. 100 μL per well is then transferred to the corresponding wells of the plate containing the cells, then the latter is incubated with 5% CO2 at 37° C. for 24 hours.
Development (D1): Fill a flat-bottom 96-well plate with 180 μL per well of QUANTI-Blue (InVivoGen, CA, USA). Add 20 μL of supernatant from the plate treated with IL-6. Incubate with 5% CO2 at 37° C. for 3 hours. Determine the quantity of secreted alkaline phosphatase using a spectrophotometer set at 620 nm.

hIL-6 [2] = molecular target: T1, hIL-6; test: ELISA of sera from Cynomolgus monkeys immunized with hP2 for anti hIL-6 antibodies; type: in vivo, Cynomolgus monkey
Procedure: Four Cynomolgus monkeys were immunized intra-muscularly at day 0 with 150 μg of the cyclized hP2 peptide derived from hIL-6 previously described coupled to the protein carrier KLH, and then emulsified with the ISA51 adjuvant (Seppic).
Boosts were performed at d15, d30, d45 with an additional boost at d76. Blood samples were collected every two weeks until the end of the experiment (d120). These sera were tested in ELISA to evaluate the production of anti hIL-6 antibodies. A control group of four monkeys immunized with KLH only was used.

Cynomolgus monkeys = test: Delayed-type hypersensitivity against tetanus toxoid in immunized Cynomolgus monkeys; type: in vivo, Cynomolgus monkey; details: tetanus toxoid challenge at d90, compared to the KLH group, FIG. 8
Procedure: Briefly, the TTx vaccine (Sanofi-Pasteur, solution of 0.5 ml comprising 40 IU of Tetanus Toxoid and 0.6 mg of aluminium hydroxide) was administered intramuscularly at d59 in the thigh. Then an intradermic challenge was performed at d90 in two injection sites in the back of the monkey.
Clinical features of the cutaneous reaction were evaluated once a day for each animal before the challenge and then 24 h, 48 h and 72 h after the challenge. Each injection site was monitored for the incidence, grade and duration of three parameters (erythema, thickening, nodules) and a cumulative clinical score of delayed-type hypersensitivity (DTH) comprising these three parameters was established for each group.

murine IL-6 = molecular target: T2, murine IL-6 (Mus musculus, UniProt P08505); test: Murine IL-6 neutralization test on murine B9 hybridomas with purified IgGs from immunized rabbits; type: cell-based; details: purified IgGs from rabbits immunized with the peptide; B9 hybridoma proliferation, XTT
T2 sequence (P08505 25-211): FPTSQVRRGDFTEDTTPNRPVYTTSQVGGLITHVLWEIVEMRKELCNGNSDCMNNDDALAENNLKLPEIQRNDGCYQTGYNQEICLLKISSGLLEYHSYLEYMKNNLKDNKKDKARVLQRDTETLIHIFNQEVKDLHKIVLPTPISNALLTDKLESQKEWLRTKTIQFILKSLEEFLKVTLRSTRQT
Procedure: The neutralizing ability of purified IgGs based on serum from rabbits immunized with the peptides mP1, mP2, mP3, mP4, mP5 and mP6 respectively, was tested in a murine IL-6 neutralization test. This test is based on the fact that murine B9 hybridomas proliferate in a dose-dependent manner in response to murine IL-6 (Brakenhoff et al. (1987) J. Immunol. 139:4116-21).
Plating (D0): seed a flat-bottom 96-well plate, treated for cell culture with 5000 cells per well in 50 μL of neutralization medium. (RPMI 1640 without phenol red, 5% v/v Foetal Calf Serum (FCS), 2 mM L-Glutamine, 100 U/mL Penicillin/Streptomycin, […] of β-Mercaptoethanol)
In parallel a so-called “pre-incubation” plate is produced with the desired concentration of murine IL-6, samples and commercial anti-mIL-6 antibodies used as positive control, all in a final volume of 100 μL of neutralization medium.
The pre-incubation plate is left at 37° C. for 2 hours. 50 μL per well is then transferred to the corresponding wells of the plate containing the cells, then the latter is incubated with 5% CO2 at 37° C. for 96 hours.
Development (D4): Add 50 μL of a solution of XTT (for 2,3-bis-(2-methoxy-4-nitro-5-sulfophenyl)-2H-tetrazolium-5-carboxanilide)—0.5% electron coupling reagent to each well. Leave to incubate at 37° C. for 7 hours. Reading of the optical density on a spectrophotometer set at 450 nm.

C57BL/6 mice = test: Murine model of chronic colitis induced by DSS after vaccination; type: in vivo; details: for histological colitis score: D67 colon distal biopsies, compared with control mice treated with PBS or KLH alone, FIG. 3; for disease activity index (DAI) / reduction of the length of the colon: DSS-treated C57BL/6 mice; for disease activity index (DAI): 100 μg peptide coupled with KLH, compared with the control groups, FIG. 2; for reduction of the length of the colon: compared with control mice, FIG. 4
Description: Chronic colitis induced by Dextran Sodium Sulfate (DSS) is a well-known model of chronic inflammatory disease reproducing the main characteristics of the human diseases (Alex et al. (2009) Inflamm. Bowel Dis. 15:341-352).
Briefly, groups of 6 C57BL/6 mice (Charles River Laboratories, L'Arbresle, France) were formed. The mice were immunized 4 times (once with CFA and three times with IFA) every 15 days with different vaccine preparations. The mice were respectively immunized with PBS (DSS/PBS group), 50 μg per mouse of KLH (DSS/KLH group), and 100 μg per mouse of peptide mP1, mP2, mP3, mP4, mP5 and mP6 coupled with KLH (DSS/mIL-6 peptide group). A control H2O group was also included. Four days after the first booster, colitis was induced by absorption of Dextran Sodium Sulfate (DSS) in water (2%) over 7 days followed by 7 days of water. Three DSS/water cycles were thus carried out, after which the mice received water until the end of the protocol. The clinical signs of the disease appear approximately on the fifth day after the start of treatment with DSS (D26 of the protocol). The development of the disease is measured from the start of the first DSS cycle up to the end of the protocol by a disease activity index (DAI) including weight loss, the presence of blood in the stools and the texture of the stools. The clinical scores are determined as follows: for the texture of the stools a score of 0 (hard stools) to 4 (diarrhoea), for the presence of blood in the stools a score of 0 (absence) to 4 (macroscopic blood), and weight loss a score of 0 (<1%) to 4 (>20%). Each mouse is thus assigned a clinical score with a maximum score of 12.
Then, on D67, the mice are killed by cervical dislocation. The histological sections from colon distal biopsies are scored blind, according to the severity of the inflammation (0: absence, 1: slight, 2: moderate, 3: severe), the extent of the inflammation (0: absence, 1: mucosal, 2: mucosal and sub-mucosal, 3: transmural), crypt damage (0: absence, 1: one-third damaged, 2: ⅔ damaged, 3: only the surface of the epithelium intact, 4: total destruction of the crypts and epithelium). Each mouse is thus assigned a histological score with a maximum score of 10.

IL-6Rα receptor = molecular target: T3, IL-6Rα receptor (Homo sapiens, UniProt P08887); details: adults; cited from earlier work
T3 sequence (P08887 20-468): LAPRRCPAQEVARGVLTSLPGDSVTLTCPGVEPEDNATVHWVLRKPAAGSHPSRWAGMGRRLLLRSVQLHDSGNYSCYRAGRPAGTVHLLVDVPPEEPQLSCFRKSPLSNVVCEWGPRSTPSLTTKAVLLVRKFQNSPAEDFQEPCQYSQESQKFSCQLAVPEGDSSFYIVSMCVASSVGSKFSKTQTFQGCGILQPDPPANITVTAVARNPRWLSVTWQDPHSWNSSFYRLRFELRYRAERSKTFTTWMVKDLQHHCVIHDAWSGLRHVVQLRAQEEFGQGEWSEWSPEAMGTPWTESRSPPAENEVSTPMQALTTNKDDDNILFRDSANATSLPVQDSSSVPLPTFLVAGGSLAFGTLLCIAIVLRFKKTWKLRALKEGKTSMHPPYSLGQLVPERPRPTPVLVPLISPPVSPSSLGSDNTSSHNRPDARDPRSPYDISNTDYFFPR

| Substance | neutralization of the biological activity of human IL-6 (hIL-6 [1]) | neutralization of the biological activity of murine IL-6 (murine IL-6) | histological colitis score (C57BL/6 mice) | disease activity index (DAI) (C57BL/6 mice) | reduction of the length of the colon (C57BL/6 mice) | further results |
| --- | --- | --- | --- | --- | --- | --- |
| Acetyl +T177KCQAQNQWLQDM189C-Y-BDB (Ac-TKCQAQNQWLQDMCY-{BDB}; disulfide 3-14 (inferred)) [hP6, peptide derived from hIL-6 region 177-189] | neutralize the biological activity of the human IL-6 in a dose-dependent manner |  |  |  |  |  |
| Acetyl+C78ESSKEALAENNLNLPK94C-Y-BDB (Ac-CESSKEALAENNLNLPKCY-{BDB}; disulfide 1-18 (inferred); also: coupled to KLH via BDB) [hP2, peptide derived from hIL-6 region 78-94] | neutralize the biological activity of the human IL-6 in a dose-dependent manner |  |  |  |  | peak of anti-hIL-6 antibody titer kinetics (hIL-6 [2]; Cynomolgus monkeys immunized with hP2, in average): ~60 days; development of antibodies against hIL-6 (ELISA) (hIL-6 [2]; four Cynomolgus monkeys, 150 μg cyclized hP2 coupled to KLH in ISA51 i.m., FIG. 7): developed antibodies against hIL-6; DTH response (cumulative clinical score) (Cynomolgus monkeys): marked attenuation of the DTH response |
| Acetyl+CN154QEVKDLHKIVLPTP168C-Y-BDB [mP5] |  | do not neutralize the activity of murine IL-6 |  |  |  |  |
| Acetyl+D176KCESQKEWLRTK188C-Y-BDB [mP6] |  | neutralize the biological activity of murine IL-6 in a dose-dependent manner | significantly reduced histological score | significantly reduced disease activity index | significantly less severe reduction of the colon |  |
| BDB-Y-CE125FMKNNLKDNKKDKAR140C+Amide [mP4] |  | neutralize the biological activity of murine IL-6 in a dose-dependent manner | significantly reduced histological score | significantly reduced disease activity index | significantly less severe reduction of the colon |  |
| BDB-Y-CE127FLQNRFESSEEQAR141C+ Amide ({BDB}-YCEFLQNRFESSEEQARC-NH2; disulfide 2-18 (inferred)) [hP4, peptide derived from hIL-6 region 127-141] | neutralize the biological activity of the human IL-6 in a dose-dependent manner |  |  |  |  |  |
| BDB-Y-E61IVEMRKELCNGNSD75C+Amide ({BDB}-YEIVEMRKELCNGNSDC-NH2; disulfide 11-17 (inferred)) [mP1, peptide derived from mIL-6 region 61-75] |  | neutralize the biological activity of murine IL-6 in a dose-dependent manner | significantly reduced histological score | significantly reduced disease activity index | significantly less severe reduction of the colon |  |
| BDB-Y-G63ISALRKETCNKSNMC78+Amide ({BDB}-YGISALRKETCNKSNMC-NH2; disulfide 11-17 (inferred)) [hP1, peptide derived from hIL-6 region 63-78] | neutralize the biological activity of the human IL-6 in a dose-dependent manner |  |  |  |  |  |
| Gluta-C99YQTGYNQEIC109+Amide (Gluta-CYQTGYNQEIC-NH2; disulfide 1-11 (inferred)) [mP3, peptide derived from mIL-6 region 99-109] |  | neutralize the biological activity of murine IL-6 in a dose-dependent manner | significantly reduced histological score | significantly reduced disease activity index | significantly less severe reduction of the colon |  |
| Gluta-C101FQSGFNEETC111 +Amide (Gluta-CFQSGFNEETC-NH2; disulfide 1-11 (inferred)) [hP3, peptide derived from hIL-6 region 101-111] | neutralize the biological activity of the human IL-6 in a dose-dependent manner |  |  |  |  |  |
| Tocilizumab: humanized monoclonal antibody directed against the IL-6Rα receptor |  |  |  |  |  | clinical effectiveness in rheumatoid arthritis (IL-6Rα receptor): clinically effective |
